Results from publication PMC5147519.

Molecular target: K18 WT tau (tau four-repeat domain), poly-histidine tag intact (human)
Experiment: SDS-PAGE and Western blot (SDS-resistant dimers and aggregates); soluble and pellet fractions of IPTG-induced E. coli, 15% Tris-glycine SDS-PAGE, blot with polyclonal anti-human tau A0024

stoichiometry N: 2
Substance: K18 WT tau (tau four-repeat domain), poly-histidine tag intact (domain or fragment)
